Reference: the DeepSol protein solubility set

assay: soluble on expression in E. coli; label from the status in PepcDB or PDB records

Sequence | soluble on expression in E. coli
MVSKIIKLGVPTATLAVGTLLLGDDEKRSAFFRTASAFTQNHGHKTFDEHFPRGEWDKNWDFRDPISLVDKGKWEKADEEGKKKLIEEKKATATRNIFLIRHGQYHLDHEVKMLTPLGREQAELLGKRLANSDIKFTNMTMSTMVRATETANIILKHLPDDLTRTSSPFIEEGPPYPPVPDHKTWRPLDPEFYTEAARIESAYRKIFHRASPSQKEDSFELIVCHANVIRYFICRALQFPPEGWLRMSLGNCSLTWITIRPKGHVSVRSIGDIGHLPPNKISFT | not soluble
MGSDKIHHHHHHMRIAIVTHVVRHNDGQGRVNYEIARAALAENYEVTLVASHVAPELLADPRVRWVPVKVGRFWPSNLVKQQVFALKSAWWLRAHRGEYDVLHVNGFISWISADVNTAHFVHGGWFKSPYYPFGLTKGMWSAYQYVYTRVNTALERWAYRRSRAITAVSQKVADEIAGLGIDSRKISVIYNGVDGSAFAGAQPDRAAFKLPDDAFLLLFVGDLRTPRKNLGTVLKALTKLPANVHLAVAGYLPGSPYPDEARALGIDSRVHFLGLVKNMPTLMSSVDAYVFPSRYEAMSLSLLEAMAAGLPVVTARTAGGAEIITRECGIVLEDPDDPAALAQAIGSLAASRDTCRAMGDAARELMTRFGWAHMGAQYVALYRRIGQPTQPSAFERVEHAVTQEQS | not soluble
MVYDDANKKWVPAGGSTGFSRVHIYHHTGNNAFRVVGRKIQDHQVVINCAIPKGLKYNQATQTFHQWRDARQVYGLNFGSKEDASVFASAMMHALEVLNSQDAGEKALFTAGCEV | soluble
MGHHHHHHSHMDDAAVLKRRGYLLGINLGEGSYAKVKSAYSERLKFNVAIKIIDRKKAPADFLEKFLPREIEILAMLNHCSIIKTYEIFETSHGKVYIVMELAVQGDLLELIKTRGALHEDEARKKFHQLSLAIKYCHDLDVVHRDLKCDNLLLDKDFNIKLSDFSFSKRCLRDDSGRMALSKTFCGSPAYAAPEVLQGIPYQPKVYDIWSLGVILYIMVCGSMPYDDSNIKKMLRIQKEHRVNFPRSKHLTGECKDLIYHMLQPDVNRRLHIDEILSHCWMQPKARGSPSVA | not soluble
MPEQDIASLISEHRILLEEAVREVIRRYPQSLSPSENFSKHIFSSEQLKNIIDTVLAEAWQQSAMVVITLCDEKGECVLTYRMPGTSAEDIAVAGRAAEAAVSFAKENKQIIDPTLHNVIGGIDTSRGGCVVYCAGKVIGGIGISGASAEKNHLIALRAVDSLKSGSQK | not soluble
SLGRTRRKNKPITIKSYVVSSDTWQLGCIEYGSHSMSGQRAYNEDRVCVVPSVDVCTREGCCKAHTKAMFYAVYDGHNGEEAVNYVQEHLHKNIFRSRSFHGDVSKAIRAGFIATDNALRSMVMEKIRGEGFEDQDISPFSSGTTACTAVVRDMQLYIGNLGDSRCVLSRAGRSHLITVDHSCRTNADEQQRVREDGGHYDTDGYLNGAIGVSRAFGAFDKNCGQKLSGLTCEPQIHKETLRREDEFMIIACDGVFDVISCQEAVNCPPERLQHKDKRPADWTPTTPGLGEEKAATAEARPSSSSRSPLAATQSGASAGDRTGVSG | not soluble
SMRTAQEVETYRRSKEITVRGHNCPKPVLNFYEANFPANVMDVIARQNFTEPTAIQAQGWPVALSGLDMVGVAQTGSGKTLSYLLPAIVHINHQPFLERGDGPICLVLAPTRELAQQVQQVAAEYCRACRLKSTCIYGGAPKGPQIRDLERGVEICIATPGRLIDFLECGKTNLRRTTYLVLDEADRMLDMGFEPQIRKIVDQIRPDRQTLMWSATWPKEVRQLAEDFLKDYIHINIGALEL | soluble
MASQEFQGFLDSSLLNEEDCRQMIYRSEREHDARMVGVNVDQHFTSQYRKVLTTWMFCVCKDLRQDNNVFPLAVALLDELFLSTRIDRENYQSTAAVALHIAGKVRAYMPIKATQLAYLCGGATTADKLLTLEVKSLDTLSWVADRCLSTDLICYILHIMHAPREDYLNIYNLCRPKIFCALCDGRSAMKRPVLITLACMHLTMNQKYDYYENRIDGVCKSLYITKEELHQCCDLVDIAIVSFDENYFKINA | soluble
MMSDQKDEEEYSHSSNRSEDEDEERTIDNEINRSPNKSYKLGNIIGNGSFGVVYEAICIDTSEQVAIKKVLQDPQYKNRELMIMKNLNHINIIYLKDYYYTESFKKNEKNIFLNVVMEYIPQTVHKYMKYYSRNNQALPMFLVKLYSYQLCRALSYIHSKFICHRDLKPQNLLIDPRTHTLKLCDFGSAKNLLAGQRSVSYICSRFYRAPELMLGSTNYTTHIDLWSLGCIIAEMILGYPIFSGQSSVDQLVRIIQVLGTPTEDQLKEMNPNYADIKFPDVKSKDLRKVFPKGTPDEAINLITQFLKYEPLKRLNPIEALADPFFDELRDPCIKLPKYIDKLPELFNFCKEEIQEMSMECRRKIIPKNVYEEFLMVDE | not soluble
